Residue numbers refer to the chain shown, from its start. Numbers in names are those of the source. Each block holds one binder with its values, some of them ahead of it.
Tests used:
[1] = target: T1, recombinant human IGF-II (Insulin-like Growth Factor II) (human, UniProt P01344 25-91, biotinylated (Biotinyl-IGF-II, GroPep) where immobilised in SPR, site not stated; not biotinylated in ITC and as SPR analyte); assay: SPR, IGF-II immobilised, kinetic fit
T1 construct: also called IGF2; IGF-2
Protocol: (§1) Kinetic analysis by Surface Plasmon Resonance (SPR) was conducted on a BIAcore 3000 biosensor (BIAcore, Uppsala, Sweden) at 25° C. in HBS-EP (10 mM HEPES, pH 7.4, 150 mM NaCl, 3 mM EDTA, 0.005% surfactant P20) at a flow rate of 40 μl/min. […] Kinetic experiments consisted of a two minute injection of analyte followed by a 100 s dissociation phase in running buffer, after which the binding surface was regenerated with a 2 minute injection of 2 M MgCl₂. A blank flow cell was used for in-line reference subtraction of changes due to differences in refractive index of running buffer versus sample and a buffer-only injection was used to subtract instrument noise and drift. Injections were performed in duplicate for each concentration and in a randomised order. Kinetic parameters were determined by global fitting of sensorgrams to a two-state (conformational change) binding model using BIAevaluation software version 4.0.1. In all cases the minor component made an insignificant contribution to the overall affinity and as such only the kinetic parameters of the major binding component were used. For each interaction the dissociation affinity constant (KD) was also calculated by fitting of the response of each concentration at equilibrium to a steady-state affinity model using BIAevaluation. In order to investigate the influence of ionic strength, kinetic experiments were conducted in HBS-EP running buffers containing the desired NaCl concentration. In each case, analyte samples were made up in the appropriate running buffer prior to injection.
(§2) Following purification, the binding of each mutant construct to IGF2 was assessed by SPR and compared to the wild type domain 11. Sensorgrams were generated using biotinylated IGF2 immobilised to the cell surface and mutant domain 11 proteins as the free analyte (FIG. 4).

[2] = target: T1, recombinant human IGF-II (Insulin-like …); assay: SPR, IGF-II immobilised, major kinetic parameter ka1
Protocol: (§3) Kinetic experiments consisted of a two minute injection of analyte followed by a 100 s dissociation phase in running buffer, after which the binding surface was regenerated with a 2 minute injection of 2 M MgCl₂. A blank flow cell was used for in-line reference subtraction of changes due to differences in refractive index of running buffer versus sample and a buffer-only injection was used to subtract instrument noise and drift. Injections were performed in duplicate for each concentration and in a randomised order. Kinetic parameters were determined by global fitting of sensorgrams to a two-state (conformational change) binding model using BIAevaluation software version 4.0.1. In all cases the minor component made an insignificant contribution to the overall affinity and as such only the kinetic parameters of the major binding component were used. For each interaction the dissociation affinity constant (KD) was also calculated by fitting of the response of each concentration at equilibrium to a steady-state affinity model using BIAevaluation. […]
(§4) The affinity of versions of Fc-tagged domain 11 fusion proteins, and domain 11 constructs, for IGF-II were compared using surface plasmon resonance (BIAcore 3000). […] The Fc-tagged domain 11 kinetic data performed in triplicate generated sensorgrams that were analyzed using a bivalent analyte model.

[3] = target: T1, recombinant human IGF-II (Insulin-like …); assay: SPR, IGF-II immobilised, steady state
Protocol: as §1, §2

[4] = target: T1, recombinant human IGF-II (Insulin-like …); assay: SPR, steady-state KD relative to wild type
Protocol: […]. Values are the mean±S.E.M. of three separate experiments.
as §1
Following purification, the binding of each mutant construct to IGF2 was assessed by SPR and compared to the wild type domain 11.

[5] = target: T1, recombinant human IGF-II (Insulin-like …); assay: SPR, IGF-II immobilised, major kinetic parameters
Protocol: as §3, §4

[6] = target: T1, recombinant human IGF-II (Insulin-like …); assay: SPR, IGF-II immobilised, major kinetic parameter kd1
Protocol: as §3, §4

[7] = target: T1, recombinant human IGF-II (Insulin-like …); assay: ITC
Protocol: Calorimetric measurements were performed using a VP-ITC microcalorimeter (MicroCal). All solutions were thoroughly degassed before use by stirring under vacuum. […] The sample cell contained either wild type domain 11 (7 uM) or the E1544A mutant (8 μM), also in HBS-E buffer. To correct for the heat effects of dilution and mixing, reaction heats obtained from a control experiment, in which IGF2 was injected into HBS-E, were subtracted. Calorimetric data were analysed using MicroCal ORIGIN software (version 5.0) supplied with the instrument. Thermodynamic parameters were derived by fitting the binding isotherms to a single-site binding model. Values for dissociation affinity constants (KD) were determined from duplicate experiments.
In order to validate the SPR sensorgram data, ITC was used to assess the binding affinity between domain 11 and IGF-II. The affinity of the E1544A mutant was also assessed by ITC in order to confirm whether use of a second technique agreed as to the apparent increase in affinity (FIG. 6 and Table 6). Titrations were performed using 17×15 μl injections of 40 μM IGF-II (after an initial 7.51 injection) into the reaction cell containing wild type domain 11 or the E1544A mutant. […] The two fold differences may be simply accounted for by the fidelity of both techniques.

T1 sequence (P01344 25-91 limits assumed): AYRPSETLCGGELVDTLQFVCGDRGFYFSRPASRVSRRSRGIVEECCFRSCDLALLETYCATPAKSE

Kd [1]: 102 nM
koff [1]: 0.053 s⁻¹
kon [1]: 525000 M⁻¹ s⁻¹
kon [2]: 662000 M⁻¹ s⁻¹
Kd [3]: 103 nM
Relative Affinity [4]: 1 fold (wild type = 1.00)
Kd [5]: 119 nM
koff [6]: 0.0787 s⁻¹
B1: wild type IGF2R domain 11 (amino acids 1511-1650) with C-terminal His6 tag, from Pichia pastoris (receptor)
chain: NEHDDCQVTNPSTGHLFDLSSLSGRAGFTAAYSEKGLVYMSICGENENCPPGVGACFGQTRISVGKANKRLRYVDQVLQLVYKDGSPCPSKSGLSYKSVISFVCRPEAGPTNRPMLISLDKQTCTLFFSWHTPLACEQATHHHHHH
notes: also called WT; wild type domain 11

Kd [1]: 36 nM
koff [1]: 0.033 s⁻¹
kon [1]: 934000 M⁻¹ s⁻¹
relative affinity increase over wild type [7]: ~2 fold
Kd [3]: 37 nM
Relative Affinity [4]: 2.79 fold (wild type = 1.00)
B2: IGF2R domain 11 E1544A (amino acids 1511-1650, C-terminal His6 tag, from Pichia pastoris) (receptor)
chain: B1 chain with E34A

kon [2]: 2.02e+06 M⁻¹ s⁻¹
Kd [5]: 20.5 nM
koff [6]: 0.0406 s⁻¹
B3: IGF2R domain 11 E1544K (amino acids 1511-1650, C-terminal His6 tag, from Pichia pastoris) (receptor)
chain: B1 chain with E34K
notes: also called enhanced mutant

From patent US20090304651A1 (published 2009)
